# Measured values: the supplement of paper PMC9170038
# System: K4 kissing-loop RNA reporter
# Assay: apparent KD of K4 kissing-loop reporter; higher = weaker reporter binding
# Conditions: Eterna round: R107
# Description: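 RNA-MaP round R107: designed RNA switches with theophylline, tryptophan, arginine or FMN aptamers are transcribed on-chip within common flanks. They are titrated with a labelled K4 kissing-loop RNA reporter in RNA-MaP buffer (100 mM Tris pH 7.5, 80 mM KCl, 4 mM MgCl2), without ligand or with the indicated ligand. Median apparent KD per design.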
# [1] = input ligand: theophylline 20 uM
# [2] = input ligand: tryptophan 2.4 mM
# 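Note: bound reporter read as fluorescence of individual clusters on recovered sequencing chips by microscopy, with normalized cluster intensities fitted with a binding model.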
Sequence,apparent KD of K4 kissing-loop reporter (input ligand: FMN 200 uM),apparent KD of K4 kissing-loop reporter (input ligand: arginine 13.2 mM),apparent KD of K4 kissing-loop reporter (input ligand: none),apparent KD of K4 kissing-loop reporter [1],apparent KD of K4 kissing-loop reporter [2]
UUGAGCCUGACGCAAGUCAGGCUCUGCGAGCGAGGACCGGUACGGCCGCCACUCGGUGCAGUGAUGUUGCAUGGCCGCAAGGCCG [#2 Exclusion - Tryptophan A Attempt #17 (HarryS)],316 nM,299 nM,318 nM,394 nM,441 nM
CGCAGUGAUGUUGCGAGUUUAUUCAGGGAAGGAGCGCCACAGAUGGCAGGUAGGUCGCCCACGCAGUGAUGUUGUGUAUUCGGGU [Exclusion Arginine A GF 3],141 nM,128 nM,127 nM,128 nM,116 nM
UGUACCGAGUCAGGAUAUCAAAAUAAUUGGAGUGAUGUUCCAAAUACGACUGACAAAGUCGGUCGAUGAGAAGGGACUUGGUACU [FmnBS 11 #SwitchBubble #StaticStem],118 nM,122 nM,122 nM,163 nM,114 nM
CGUUUAUAGCAGGAUACCAGUACCCAUAAAGUACGUUAAUAGUAGAGUGAUGUUCUAAAGUACCCUUGGCAGCUUCCCGUGACCC [ExTheophylB.W],103 nM,160 nM,133 nM,182 nM,79.6 nM
UGUGUUGUUGUGAUGUUUGGUGUUGCAGGGCAGGAUAUCGUAGAGGCGAGAAGGGCUUUUGUGCGGUAUGAGUGAUGUUUGUAGG [rrcgsmullin],197 nM,218 nM,270 nM,369 nM,250 nM
AUGUCUGAUAGCAGUGAUGUUGCUUCGGAUACCAGACGCGAUCUUGUCCCUUGGCAGCUGACACGGCACGUGCUAGGUUAGAAGG [whbob_Ex_Theo_A_th75],169 nM,125 nM,155 nM,124 nM,134 nM
UAUCGAGUGAUGUUCGAUGUAGUUCAUUCAGAGGAUAUAGGAUGGGCUAGAAGGCUGAAAAGUGCUUCGAGUGAUGUUCGAAGAU [Exclusion FMN A GF 6],64.6 nM,40.9 nM,53.7 nM,40.9 nM,44.7 nM
UGGACGAAUAUCGAUAAGAUAUUCUGGGAUACCAGUGACGAAAGUCACCCUUGGCAGCUCAACUGCCAGUGAUGUUGGUAGUCCA [Astros-Elo-mod#3],238 nM,142 nM,218 nM,162 nM,165 nM
GGCAGUGAUGUUGCCAGUGGCAGAUGAGAAGGAGCGUGGUGAGACACAGGUAGGUCGCUCAUUGAAAUUGCUGUCACUAAAAUGC [#5],289 nM,322 nM,266 nM,234 nM,215 nM
ACCUGUAGUGAUGUUACUGGUGGUUAGGAAGGAGCGCCCGCGUGGGCAGGUAGGUCGCCUAAGCUAUGUGGGAAACCGCAUAUUG [#14 K4 Arginine A Same State],75.5 nM,73.8 nM,76.9 nM,75.3 nM,93.3 nM
AGAGAUAUAUGAGGAUAUGAGUUAGUUAAUGAGUGAGUUUUAGUGUUGUUUGGUUAGUGAUGUUAUUUAGAAGGCGUGAGUGAUG [ttytmullin],98.8 nM,75.2 nM,74.9 nM,106 nM,75.9 nM
AAUAAGGAGUGAUGUUCCAAGUGAUGUUAACGAGGACCGGUACGGCCGCCACUCGAUACGGCCGGAAAAUAAAAUAAAAUAAAAU [Same State - Tryptophan A (Freestyle 1)],103 nM,119 nM,134 nM,120 nM,124 nM
AAAUUUUCGAGUGAUGUUCGAAUAAUUUCAGAGGAUAUGCUUAAAAGCAGAAGGCUGUAUUACUAUUUGUUAUUAAAUUUUAUAA [JR_ExcFMNA_Sub001],106 nM,110 nM,96.7 nM,105 nM,86.2 nM
AUUUAGACGAGUGAUGUUCGUGUUAUUACAGAGGAUAUGCGUAAUUGCAGAAGGCUGUAUUUAUAUAUGUUAUGUGGUUUUAAAA [whbob_Ex_FMNA__2th185],75.1 nM,98 nM,77.6 nM,93.8 nM,63 nM
AGCGAUGUUUUCUCUAAGAGUGAUGUUUUUCGAGGACCGGUACGGCCGCCACUCGAAUAAAGUGUGCGGUAGUGAGCUGUUGACA [#18 K4 Tryptophan A Exclusion],710 nM,550 nM,747 nM,580 nM,718 nM
CCUAUCUCAUACGAUACCAGUCAAUUAAAUUUUAUAAAUGCCAUCACCGAGUGAUGUUCGGACCCUUGGCAGCGUAUGGGAUAGG [Ex Theophylline B K4 2],222 nM,175 nM,198 nM,310 nM,187 nM
CUGGGUUGACGAAAAGUCAACAAACGAGAAGGAGCGCACGAAAGUGCAGGUAGGUCGCUCAGUCCAGUGAUGUUGGAUCAUCCAG [#SwitchBubble 9 #K4Late],265 nM,763 nM,687 nM,840 nM,323 nM
UGACAUUGCUCAGAUACCAGACCUGAGGAUCACCCGGGUGCCAAACGUACAAUAAUAAAGGUCCCUUGGCAGCUGAGCAAUGUCU [TheoBX 14],56.2 nM,39.7 nM,103 nM,68.4 nM,83.9 nM
CUUGUACAUGCCGAGGUAGGUGCGGGUUAGCGAGGACCGGUACGGCCGCCACUCGCCAAGUGAUGUUUGGUCCUUUGGGUCGGCA,948 nM,507 nM,562 nM,663 nM,633 nM
AAAAUAAACCAGUGAUGUUGGUGUCUAGAUACCAGCGACGAAAGUCGCCCUUGGCAGCUAUGGACGUACAAAAUAAGUACGUCCU [MatMod 6 - Jieux - Same State - Theophylline A],647 nM,459 nM,617 nM,679 nM,612 nM
AAAUUUAAUAUAUUUAAUUAAUUAUGUGAUACCAGACAUUUAUAAGUCCCUUGGCAGCACUUUGCAGUGAUGUUGCUUAUAAUAA [JR_SSTheophyA_Sub014],88.8 nM,97.1 nM,91.4 nM,192 nM,83.8 nM
AGAAACUUGUAUGUCGGGUGUGCGCGCGAUACCAGCCAAAUGGAUGGCCCUUGGCAGCGCAGCGAGUGAUGUUCGCCCGCUUGAC [Exclusion Theophylline A GF 22],251 nM,239 nM,302 nM,354 nM,232 nM

Sequence,apparent KD of K4 kissing-loop reporter (input ligand: FMN 200 uM),apparent KD of K4 kissing-loop reporter (input ligand: arginine 13.2 mM),apparent KD of K4 kissing-loop reporter (input ligand: none),apparent KD of K4 kissing-loop reporter [1],apparent KD of K4 kissing-loop reporter [2]
GGUAGCAUGGCGGCCGCCACUCGGACGACAUAGCACAUGUCGACCAGUGAUGUUGGUUCAAACACGAGGACCGGGCCAUGCUACC,724 nM,715 nM,798 nM,629 nM,135 nM
UUUUUGGAGAAUUAUAGUGAUGUUAUGAAGGAGGAUAUCUGGAGAUGGAGAAGGCCUAGUGGCUCAGCCAUGGAGGGUGGGUGGG [ExFMNA.aA],1110 nM,527 nM,894 nM,655 nM,611 nM
UGUACAUGUCACCGAGUGAUGUUCGACGAUACCAGACUCGAUAGAGUCCCUUGGCAGCGUAACGCAUGCCAAAGUGGCAUGUACU [#SwitchBubble 10 #K4Early],925 nM,521 nM,721 nM,496 nM,598 nM
UGACUGGACUGAAGGAGCGCGAAACUCCUAGUGAUGUUAGGACAACGAGACAAAGUCUCGACGCAGGUAGGUCGCAGUCUAGUCU,148 nM,111 nM,131 nM,144 nM,132 nM
ACUGGGUUGACGAAAGUCAACAAAUGAGAAGGAGCGCACGAAAGUGCAGGUAGGUCGCUCAUUCCAGUGAUGUUGGAUCACCAGA [#SwitchBubble 19 #K4Late],531 nM,456 nM,836 nM,831 nM,464 nM
UGAGUGAUGUUCAAGGACUAGAUCUAAAUAAAGGAUAUAGCAUACGCUAGAAGGUUAAAAUUUCUGGAUCCCAGUUUAAACCUUU [theeternabot_sameState_KL_FMN_A_49],246 nM,154 nM,222 nM,222 nM,195 nM
UGACUGGACUGAAGGAGCGUUGAAGGAGCGUAGUGAGUGAUGUUCACUACAGGUAGGUCGCAGCAGGUAGGUCGCAGUCUAGUCU [ArgBS 25 #DoubleAptamer #SwitchBubble],149 nM,107 nM,101 nM,83 nM,145 nM
UUGUGCAGCAAUCGAGUGAUGUUCGACGAUACCAGCCUCGAUAGAGGCCCUUGGCAGCGUAUCAUCACAUGCCAAGAGCUGCACU [#SwitchBubble 5],530 nM,362 nM,428 nM,368 nM,419 nM
UCUGGUAUAUCUGAUACCAGAGAAUAGAAUCAAUUGAAUAUGGAGUGAUGUUCCAUAAAACUCCCUUGGCAGCAGAUAAUCAUAU [Same State Theophylline B GF 22],113 nM,167 nM,125 nM,172 nM,112 nM
AGACCUCAGUGAUGUUGAGGUAACGCUGAUACCAGUGACUUAAUUCACCCUUGGCAGCAGUCCACCAAGGUAUCUGAUUAGGUCU [Theo A Ex t5],153 nM,163 nM,133 nM,144 nM,138 nM
AAGUGAUGUUGUAGUGAUGUUGUGAUGUUGCAGGAUAUAUAGUGAUGUAGAAGGGUAUGUACAGUUUUUUUUUUUGAGUGUUGAU [sscsmullin],79.7 nM,36 nM,62.2 nM,47.8 nM,66.2 nM
CAACCCUGCUUUUUCGAGUUUUAGGGAUGACGAGGACCGGUACGGCCGCCACUCGACUACACUGUUCAGUGAUGUUGAACGGCGG [Teveza],165 nM,60 nM,116 nM,148 nM,267 nM
UGAUACCAGACGGCCGCCACUCCCGCAGGUCAAAGACCUGCGAAGAUGGUUCUUCAGUGAUGUUGGAGGACCGGGUCUGGUAUCU [FiskerMod 23 - Jieux - Exclusion - Tryptophan B],173 nM,128 nM,137 nM,140 nM,314 nM
GCCGUAGAUGGAAGGAGCGUGUCCAAACCUCAUUCAUGUACACACGAGUGAUGUUCGUGUACACAGGUAGGUCGCCAUCUACGGC,413 nM,314 nM,374 nM,410 nM,363 nM
CCUAUCUCAUACGAUACCAGUCAACGAGUGAUGUUCGAAUAAAUAAAUUUGCCAAAUAAUGACCCUUGGCAGCGUAUGGGAUAGG [Ex Theophylline B K4 15],299 nM,313 nM,329 nM,302 nM,247 nM
UUACGCGGCAUAGAUACCAGCAAUGCAGGAUAGGUCAAGAGUGAUGUUCUGAUACUUGGGUGCCCUUGGCAGCUAGACGAUAACA [theeternabot_sameState_KL_Theo_B_46],479 nM,449 nM,521 nM,412 nM,308 nM
GGUAGCAUGGCGGCCGCCACUUUGCACCUUUUCUUUUCUUUUGGUGCUUCACGAGUGAUGUUCGUAAGGACCGGGCCAUGCUACC,259 nM,217 nM,261 nM,213 nM,195 nM
CCGACUGCAGGAAGGAGCGGCGGUUGGAGUGAUGUUCCGGGUAGUGAUGUUACCAAGAUCCGCCAGGUAGGUCGCCUGUUGCUCG [Same State Arginine B GF11],134 nM,117 nM,129 nM,122 nM,120 nM
GCGGGCCCUGGAGGAUAUGAGUCGAGUGAUGUUCGGCGGUCCAUGCCGAUGCGGCGUUAUGCCCUUUUAGAAGGCCAGGGCCCGC [#2 Exclusion - FMN B Attempt #7 (HarryS)],392 nM,236 nM,310 nM,243 nM,277 nM
AAUAAAAUCACGGCCGCCACUGAAUAAUUGGUAAGUAGUGAUGUUACUUUACUUUUCUUAUUUAACAGGACCGGGUGAAUAUUUA [JR_ExcTryptoB_Sub009],104 nM,83.4 nM,98.5 nM,88.2 nM,123 nM
UUAUAUAAUUUGUCUUUUUUAACAUUAAGUCAGGAUAUCGUAUAUUCGAGAAGGGACACAUGCUAGUGAUGUUAGCUAUUUCUUU [JR_ExcFMNA_Sub016],31.7 nM,55.3 nM,30.4 nM,43 nM,30.6 nM
